Test results reported in the supplement of paper PMC7125110.
± gives the standard error. Fewer inactive variants are shown than the library holds.

B1: glmS ribozyme (parent)
chain: AUAAAAGCGCCAGAACUACAGAAAUGUAGUUGACGAGGAGGAGGUUUAUCGAAUUUUCGGCGGAUGCCUCCAAA

Assays:
Settings in all cases: with glucosamine-6-phosphate
glucosamine-6-phosphate [1] = variants of: B1; assay: self-cleavage kobs at 40 uM GlcN6P; higher = faster cleavage; RNA array
How it was run: (§1)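 Tiles bearing barcoded ribozyme variants, transcribed in situ by E. coli RNA polymerase on sequenced MiSeq chips, were imaged over ~14 h at 37 °C using a hybridised Cy3 probe. Glucosamine-6-phosphate was supplied at 40 μM to 10 mM in HEPES/KCl/Mg(OAc)2 buffer. kobs came from one- or two-exponential decay fits to normalised per-tile medians, and weighted Michaelis–Menten fits then provided kcat and KM.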

glucosamine-6-phosphate [2] = variants of: B1; assay: self-cleavage kobs at 160 uM GlcN6P; higher = faster cleavage; RNA array
How it was run: as §1

glucosamine-6-phosphate [3] = variants of: B1; assay: self-cleavage kobs at 640 uM GlcN6P; higher = faster cleavage; RNA array
How it was run: as §1

glucosamine-6-phosphate [4] = variants of: B1; assay: self-cleavage kobs at 10000 uM GlcN6P; higher = faster cleavage; RNA array
How it was run: as §1

glucosamine-6-phosphate [5] = variants of: B1; assay: self-cleavage kobs at 2500 uM GlcN6P; higher = faster cleavage; RNA array
How it was run: as §1

| Variant | self-cleavage kobs at 40 uM GlcN6P (glucosamine-6-phosphate [1]) | self-cleavage kobs at 160 uM GlcN6P (glucosamine-6-phosphate [2]) | self-cleavage kobs at 640 uM GlcN6P (glucosamine-6-phosphate [3]) | self-cleavage kobs at 10000 uM GlcN6P (glucosamine-6-phosphate [4]) | self-cleavage kobs at 2500 uM GlcN6P (glucosamine-6-phosphate [5]) |
| --- | --- | --- | --- | --- | --- |
| C10A C16U | < 1e-05 s⁻¹ | < 1e-05 s⁻¹ | < 1e-05 s⁻¹ |  |  |
| C50G C58A C67U | 3.98e-05 ± 1.7e-05 s⁻¹ |  |  | 5.82e-05 ± 1.9e-05 s⁻¹ |  |
| U31A G62U | < 1e-05 s⁻¹ | < 1e-05 s⁻¹ | < 1e-05 s⁻¹ | < 1e-05 s⁻¹ |  |
| G43A U47G | < 1e-05 s⁻¹ |  | < 1e-05 s⁻¹ |  |  |
| A1G C34U A52U | < 1e-05 s⁻¹ |  |  |  |  |
| G37U A42U | < 1e-05 s⁻¹ | < 1e-05 s⁻¹ | < 1e-05 s⁻¹ |  |  |
| C11U A48G C68A | < 1e-05 s⁻¹ |  |  |  |  |
| U31G C50G C70U | 5.37e-05 ± 2.4e-05 s⁻¹ |  |  | 4.81e-05 ± 1.5e-05 s⁻¹ |  |
| C16A G37C | < 1e-05 s⁻¹ |  |  |  |  |
| A6G U30C G35A A39G G40A G66A | < 1e-05 s⁻¹ |  |  | < 1e-05 s⁻¹ |  |
| C10A C11U A36U C70U C71G | 0.000371 ± 9.5e-05 s⁻¹ |  | 0.000527 ± 0.00015 s⁻¹ | 0.000335 ± 6.3e-05 s⁻¹ |  |
| U56G G62A G63A | < 1e-05 s⁻¹ |  |  |  |  |
| A36C G63U | < 1e-05 s⁻¹ |  | < 1e-05 s⁻¹ |  |  |
| G7C C16A U47C A53U | < 1e-05 s⁻¹ |  |  | < 1e-05 s⁻¹ |  |
| A6G U31G A42C A48G C67G | < 1e-05 s⁻¹ |  |  |  |  |
| G9U C68A | < 1e-05 s⁻¹ | < 1e-05 s⁻¹ |  | < 1e-05 s⁻¹ | < 1e-05 s⁻¹ |
| G7U A12C C50G C61A | 0.000187 ± 7.2e-05 s⁻¹ |  |  | 0.000332 ± 0.00012 s⁻¹ |  |
| U45C G63A | < 1e-05 s⁻¹ | < 1e-05 s⁻¹ |  | < 1e-05 s⁻¹ | < 1e-05 s⁻¹ |
| C8U U45C | < 1e-05 s⁻¹ | < 1e-05 s⁻¹ | < 1e-05 s⁻¹ |  | < 1e-05 s⁻¹ |
| A15G A36C C68G | 6.45e-05 ± 2.9e-05 s⁻¹ |  |  |  |  |
| A15G C70U | 0.00115 ± 0.00011 s⁻¹ | 0.00217 ± 0.00032 s⁻¹ | 0.0045 ± 0.00057 s⁻¹ | 0.0598 ± 0.012 s⁻¹ | 0.0168 ± 0.0062 s⁻¹ |
| G63A G66U | < 1e-05 s⁻¹ |  | < 1e-05 s⁻¹ | < 1e-05 s⁻¹ | < 1e-05 s⁻¹ |
| C16A A42C G66U | < 1e-05 s⁻¹ |  |  | < 1e-05 s⁻¹ |  |

| Variant | self-cleavage kobs at 40 uM GlcN6P (glucosamine-6-phosphate [1]) | self-cleavage kobs at 160 uM GlcN6P (glucosamine-6-phosphate [2]) | self-cleavage kobs at 640 uM GlcN6P (glucosamine-6-phosphate [3]) | self-cleavage kobs at 10000 uM GlcN6P (glucosamine-6-phosphate [4]) | self-cleavage kobs at 2500 uM GlcN6P (glucosamine-6-phosphate [5]) |
| --- | --- | --- | --- | --- | --- |
| U30G A33U U56A G63U G66U | < 1e-05 s⁻¹ |  |  | < 1e-05 s⁻¹ |  |
| A48G C50A | < 1e-05 s⁻¹ | < 1e-05 s⁻¹ | < 1e-05 s⁻¹ |  | < 1e-05 s⁻¹ |
| G9U U31A C34U | < 1e-05 s⁻¹ | < 1e-05 s⁻¹ |  |  |  |
| A6C U31C C68G | < 1e-05 s⁻¹ |  |  |  |  |
| U45G G60U C67U C70A | < 1e-05 s⁻¹ |  | < 1e-05 s⁻¹ | < 1e-05 s⁻¹ |  |
| A33C U49C C50U | < 1e-05 s⁻¹ |  |  | < 1e-05 s⁻¹ |  |
| A33G A42G U46G U56A | < 1e-05 s⁻¹ |  | < 1e-05 s⁻¹ | < 1e-05 s⁻¹ | < 1e-05 s⁻¹ |
| U45C A64G | 0.000103 ± 1.8e-05 s⁻¹ |  |  | 0.00342 ± 0.00055 s⁻¹ | 0.00182 ± 0.00053 s⁻¹ |
| C11G G44A | < 1e-05 s⁻¹ | < 1e-05 s⁻¹ | < 1e-05 s⁻¹ | < 1e-05 s⁻¹ |  |
| C34A U54C | < 1e-05 s⁻¹ | < 1e-05 s⁻¹ | < 1e-05 s⁻¹ | < 1e-05 s⁻¹ |  |
| U55A C71A | 0.000472 ± 6.9e-05 s⁻¹ | 0.000925 ± 0.00023 s⁻¹ | 0.00299 ± 0.00056 s⁻¹ | 0.0132 ± 0.0032 s⁻¹ |  |
| U55A C71G | 8.5e-05 ± 2.2e-05 s⁻¹ | 0.000248 ± 9.2e-05 s⁻¹ | 0.00136 ± 0.00036 s⁻¹ | 0.00278 ± 0.0012 s⁻¹ | 0.000736 ± 0.00023 s⁻¹ |
| U31A A53G C61A | < 1e-05 s⁻¹ |  |  | < 1e-05 s⁻¹ | < 1e-05 s⁻¹ |
| A6C C8U A15G | < 1e-05 s⁻¹ |  |  | < 1e-05 s⁻¹ |  |
| A33G G62C | < 1e-05 s⁻¹ |  | < 1e-05 s⁻¹ | < 1e-05 s⁻¹ | < 1e-05 s⁻¹ |
| C16A G29C U56G A64G | 2.81e-05 ± 1.4e-05 s⁻¹ |  |  | 0.00203 ± 0.00038 s⁻¹ |  |
| A36U C61G A64C | < 1e-05 s⁻¹ |  |  |  |  |
| C8A A12U | < 1e-05 s⁻¹ |  | < 1e-05 s⁻¹ | < 1e-05 s⁻¹ | < 1e-05 s⁻¹ |
| A6U G7C | < 1e-05 s⁻¹ |  | < 1e-05 s⁻¹ | < 1e-05 s⁻¹ | < 1e-05 s⁻¹ |
| C11G A42U | < 1e-05 s⁻¹ | < 1e-05 s⁻¹ | < 1e-05 s⁻¹ | < 1e-05 s⁻¹ | < 1e-05 s⁻¹ |
| U31G A36C C61U | < 1e-05 s⁻¹ |  |  | < 1e-05 s⁻¹ |  |
| U31G A39G A53G | 0.000493 ± 0.00012 s⁻¹ |  | 0.00385 ± 0.0009 s⁻¹ |  | 0.0115 ± 0.0049 s⁻¹ |
| G63C G66C | < 1e-05 s⁻¹ | < 1e-05 s⁻¹ | < 1e-05 s⁻¹ | < 1e-05 s⁻¹ | < 1e-05 s⁻¹ |
